Source: the DeepSol protein solubility set

Assay: soluble on expression in E. coli; label from the status in PepcDB or PDB records
For “MSLTVSFVHLRLHTEFSLVDGLVRVKPLAKAVAGLGMPAVAVTDQSNMCSLVKFYKTAMGAGIKPICGADIWLASREEDGPLSRLSLLAMNAKGYRNLTELISRGWSEGQRNGEIIIERDWVKEAAEGLIALSAAKEGEIGHALLDGEEAKAEALLREWMEVFPERFYVEVQRTSRVNDEEHLHAAVALASRCNAPLVATNDVRFIKQEDFEAHETRVCIGEGRTLDDPRRPRTYSDQQYLKSPAEMAELFSDLPEALENTVEIAKRCNIEVQLGKYFLPDFPTPNGMGIDDYLRHASFEGLEERLEVLLPKDTPDYEAKRQVYVDRLNFELDIIIQMGFPGYFLIVMDFIKWAKNNGVPVGPGRGSGAGSLVAYVLKITDLDPLAYDLLFERFLNPERISMPDFDVDFCMEGRDRVIDYVADAYGRNAVSQIITFGTMAAKAVVRDVARVQGKSYGLADRLSKMIPFEVGMTLDKAYEQEEMLRDFLKSDEEAAEIWEMALKLEGITRGTGKHAGGVVIAPTKLTDFSPIACDEEGGGLVTQFDKDDVEAAGLVKFDFLGLRTLTIIKWAMEIINREQAKKGLEPVNIDFIPLDDKPTYSLLQKAETTAVFQLESRGMKELIKKLKPDCLEDLIALVALFRPGPLQSGMVDDFINRKHGRAELSYPHPDYQYAGLEPVLKPTYGIILYQEQVMQIAQVMAGYTLGGADMLRRAMGKKKPEEMAKQRGGFIEGCKNNGEGHHHHHH”, the “soluble on expression in E. coli” value was “not soluble”.
In the case of “GMSHSLKDFLEACETLGTLRLIVTSSAAVLEARGKIEKLFYAELAKGKYANMHTEGFEFHLNMEKITQVKFETGEAKRGNFTTYAIRFLDEKQESALSLFLQWGKPGEYEPGQVEAWHTLKEKYGEVWEPLPVQL”, the “soluble on expression in E. coli” value is reported as “soluble”.
For “EGRYIYMNPAHREMFGIATEDEILGRSWRELYSGDVADHIATTALPALLSTGGWRGELIGRRRDGSDLPQEVSLTLKADGGIICISRD”, the “soluble on expression in E. coli” value was “not soluble”.
For “MNKKTIQDLIPKAMQAIEGVGIVGKDKKFEKVHEGYINALGPTIIQSGLLPTLIFYNKDKRELWLKALYYMEIISNDIDPTAIIQLIIKEGDSESRQEKTLKELEPKAKEWERKILEYAVALKLALRTFVAKESETGNTEQQKGGAQ”, the “soluble on expression in E. coli” value was “not soluble”.
For “MAIPKLQSYALPTALDIPTNKVNWAFEPERAALLIHDMQDYFVSFWGRNCPMMDQVIANIAALRQYCKEHHIPVYYTAQPKEQSDEDRALLNDMWGPGLTRSPEQQKVVEALTPDEADTVLVKWRYSAFHRSPLEQMLKDTGRNQLIITGVYAHIGCMTTATDAFMRDIKPFMVADALADFSREEHLMALNYVAGRSGRVVMTESLLPTPVPASKAALRALILPLLDETDEPLDDENLIDYGLDSVRMMGLAARWRKVHGDIDFVMLAKNPTIDAWWALLSRGVE”, the “soluble on expression in E. coli” value was “not soluble”.
For “MISIHFEKAHDCHQLFQQLQGYLTKYAELGLKGGIEAGGDETLYVNYENQYVNFYDSFQPLLASIFTDYVISTKEEEWLLDIIENMFYFTDEEEKEQIVAIARSILEGDLEDMPSLSMFTNRREYIYQAFSKHIEENMTFYYDPFLTFRLREYGELLIDCVELAIDEYMMEQEYQSMVETLRQFIHSRIPKRGVIYAVYDERFHFYDEHFRLISTDEIVYDLKEELVFEHGLSVEEMVISPLVSMLPETVKVFTNDEEHGVILTLQAIFQERLKVFPLKDSPHQHREELEHHHHHH”, the “soluble on expression in E. coli” value was “soluble”.
In the case of “MNRQLLLDVLPAPAPALNNYIAGPNGQALAAAHALTAGRAIYLWGPAGCGRTHLLRGLSARPEAIYIDAARAAQSLRELAEADSTAPMPRLVAVDDVHRMDDARQAGLFALYNRWRESAATGRAFALAVSGDRAPMSLPLREDLRTRLGWDLVFRLDPLSDADKLAALTAQAAERGLQLAPEVINWMLTHHERDIRKLAALLDALDRYSLATGRPITIPLLRAMLADPHSQATLEHHHHHH”, the “soluble on expression in E. coli” value is reported as “soluble”.
For “MKKYILSLDQGTTSSRAILFNKKGEIVHSAQKEFTQHFPKPGWVEHNAQEIWGSILAVIATCLSEADVKPEQIAGIGITNQRETAVVWDKTTGKPIYNAIVWQSRQTAEICDELKEKGYSEMVREKTGLLIDAYFSGTKVKWILDNVEGAREKAENGDLLFGTIDTWLVWKLSGGKAHVTDYSNASRTLMFNIHDLQWDDELLDMLTVPKSMLPEVRPSSEVYGETIDYHFFGQNVPIAGVAGDQQAALFGQACFGEGMAKNTYGTGCFMLMNTGEKAVASEHGLLTTIAWGIDGKVNYALEGSIFVAGSAIQWLRDGMRMFKDASESEVYASRVESTDGVYVVPAFVGLGTPYWDSEVRGAMFGVTRGTTKEHFIRATLESLAYQIKDVLCAMEADSGIELKTLRVDGGAVKNNFLMKFQSDILDVPVERPVINETTALGAAYLAGLAVGYWKNQDEIKEQWHMDKRFEPTMEAETSEELYAGWKKAIEATKAFK”, the “soluble on expression in E. coli” value was “not soluble”.
In the case of “MGSDKIHHHHHHMYSDQTYEVIKNRTLENINLDIYKGEGSFLNNMVSGNNLELSKIYLELSKMHKMAFIQDTYNQFLDKRVNEFGVYRKLGTESNGEVEFIGEKGTVINNGTIISYRDLLFVVIKDVTIGSEEGDNSPVQALEVGKKYNLPTNCEFKLVDNISGVTKITNTRSFEGGTDIETDEELKERFYKIQRNQATSGNKAHYEEWALEVDGVYNVKVYPRWDGPGTVKVLIFGKNNQAVDTETIERCQQHIDEEKPIGPTITVVTPLPIEISISAVMKLEDGYTLDNVKESFLESINTYFRDIRGEIIYTKVMGILINTTGVHDLSNLLINGSTDNITINEDKIPSVTTVNFSEVENQ”, the “soluble on expression in E. coli” value is reported as “not soluble”.
With “MKKIAVFADVQNLYYTVRQAYGCHFNYAALWADISKRGEIVHAFAYAIDRGDSKQQQFQQILRNLGFTVRLKPYIQRSDGSAKGEWDVGITIDIMDFAPQVDEVVLASGDGDFDMLLDRVISKHGVEAVAYGVPGLTANSLIRAASRYVPIEGALL” the “soluble on expression in E. coli” value was “soluble”.
For “MGSDKIHHHHHHISYPLPPEGSRLVGSAFTIAVPDNNTQPLESFAAQYGQGLSNMLEANPGVDVYLPRSGSTLTIPQQLILPDTVREGIVINVAEMRLYYYPPLGNSVEVLPIGIGQAGRETPRNWVTAVERKQEGPTWVPTANTRREYAKEGKTLPAMVPPGPDNPMGLYAIYIGRLYAIHGTNANFGIGLRVSQGCIRLRNDDIKFLFDNVPVGTRVQLIDQPVKYSVEPDGSHWLEVHEPLSRNRAEFESDRKVPLPMTSALRDFTQGPGVSPAQVEQTLQRRSGMPVNISATAAQGSL”, the “soluble on expression in E. coli” value was “not soluble”.
For “MGLSPGQTSVSFLWPLLEVRDHNTGRGLVPATVLTPGSPETLLELRQAFLGSRQARHGHDAAPSSGQQGCSVDRTAGRPVLGWRLRNSLTGQEGRQHLHLSGIRTSRKAKEYKPVFFGATEISVLMAVAESLREPPPPQWGWFLSSLFLKIF”, the “soluble on expression in E. coli” value was “not soluble”.
In the case of “MGSENSALKSYTLREPPFTLPSGLAVYPAVLQDGKFASVFVYKRENEDKVNKAAKHLKTLRHPCLLRFLSCTVEADGIHLVTERVQPLEVALETLSSAEVCAGIYDILLALIFLHDRGHLTHNNVCLSSVFVSEDGHWKLGGMETVCKVSQATPEFLRSIQSIRDPASIPPEEMSPEFTTLPECHGHARDAFSFGTLVESLLTILNEQVSADVLSSFQQTLHSTLLNPIPKCRPALCTLLSHDFFRNDFLEVVNFLKSLTLKSEEEKTEFFKFLLDRVSCLSEELIASRLVPLLLNQLVFAEPVAVKSFLPYLLGPKKDHAQGETPCLLSPALFQSRVIPVLLQLFEVHEEHVRMVLLSHIEAYVEHFTQEQLKKVILPQVLLGLRDTSDSIVAITLHSLAVLVSLLGPEVVVGGERTKIFKRTAPSFTKNTDLSLEGDPFSQPIKFPINGLSDVKNTSEDSENFPSSSKKSEEWPDWSEPEEPENQTVNIQIWPREPCDDVKSQCTTLDVEESSWDDCEPSSLDTKVNPGGGITATKPVTSAEQKPIPALLSLTEESMPWKSSLPQKISLVQRGDDADQIEPPKVSSQERPLKVPSELGLGEEFTIQVKKKPVKDPEMDWFADMIPEIKPSAAFLILPELRTEMVPKKDDVSPVMQFSSKFAAAEITEGEAEGWEEEGELNWEDNNW”, the “soluble on expression in E. coli” value is reported as “soluble”.
For “MRDLFDEVAGKSPLDPNEAVRRTSRAQLPKRFYTEAGVAEENGGFAVRLDGRAVKTPSRNALAAPDRALAEAIAAEWQAQGETIDPSTMPLTRLANSVIDGVAGRVEAVTDDIAKYFGSDLLFYRAEHPEELIAREGAHWDPVLFWAKDALGAHFILAQGIVHVGQPETALAAARAALPADPWLLGALHVVTTITGSALLALALAHGRLEADQVWAAAHVDEDWNIEQWGLDEEAAARRAAKQAEFAAAAQVIAALGSRRSAAALEHHHHHH”, the “soluble on expression in E. coli” value was “not soluble”.
In the case of “MSLINTQRLVDHFLQLIQIDSESGNEKKIAETLAEQLGELGFTVHKLPVPAEVSNGFNLYARLEGTLNDSILFSCHMDTVKPGIGIEPVIEDGIIRSKGNTILGGDDKSGIAAILEAVRVLRDSQQAHKTIEIAFTVHEEGGLKGSEHFDMSKVQAEKAIVLDTGGPIGTIVRAAPGQQKIVALIKGKPAHAGLVPEDGISAIAVAADAITQMKLLRIDEETTANIGIVQGGQATNIVMPELKIVAEARSLNDAKLEAQVQHMIETFERAAEKHGATVEIESTRAYNAFKLEEDNAHIQAIKASFETIGIEPKTKLSGGGSDANNFNAKGLTTVNLSTGMAKVHTTEEYIAIADMVKIAEFVCAYTTA”, the “soluble on expression in E. coli” value is reported as “not soluble”.
In the case of “MTAQDYLNGKLAAANGPLADDWKNLKELWEKKLWHQLTVLTRSLVKKPQFVASTDMHEFYRLFVAEWELRVNPLQLVEICISIAQNIATKDKQKSMEFLSKIGNVINKDKIAVARLHTGEIEARLENKDKNGQIIDLKSIRTQIDSTQHEVDSLVGVTEVHAPFYRVSSLYLREVGDFAGYYREALRYLGVEDANNLTTEQKQVHAVLLGFAALLGENVHNFGELLAHPILKSLEGTRERWIVDVLLAFNSGDLTRFFSLEGDWGGWDDLKKQKDFLTAKIRLMAVMELAVSRPTKARSVSFKEIATKCQIPFDEVEFLVMKALSKDLIRGDINQVEQVVYVTWVQPRVLDNPQIMQMATRISAWRNDVNSMEGIVSKEAREILTQN”, the “soluble on expression in E. coli” value is reported as “not soluble”.
In the case of “MEANKREIVDFGGLRSYFFPNLAHYITKNDEELFNNTSQANKLAAFVLGASKDAPGDEDILEMILPNDANAAVIAAGMDVCLLLGDKFRPKFDAAAEKLSGLGHAHDLVSVIDDDKKLGMLARKAKLKKTEDAKILQALLKVIAIDDAAEKFVELTELVSQLDLDFDVYVLTKILGLISEETSDEVDIIRDNVVNAFDSCKPLLKQLMLDGPKSEPADPFISLLMDPLEESVGKVVNHIAQLFEEASKNEGDESLVLRSQLGYQLFFLIVRSLADGKREVSKKILSGIPTSVRAEVFPGLQRSVYKSAVFLGNHIIQVLLGSKKSFEDWDVVGVAKDLESAWKRRAIAELIKKFQVSILEQCFDKPVPLIPQSPLNNDAVIDNVNKALQFALWLTEFYGSENETEALGELRFLDSTSKNLLVDSFKKFVQGINSKTHVTRIVESLEKCCLSDTPSGRKSNVQPSTSQQQDSAYTKEEMTTVHNTYSVNTKAQVLNGLSDTNSSGLLVDSKDSLSLQEISCDEVDSSTLLSSSRNIGEGVTVKAVDPVPEKVNDAQQQQTVNEIEMASDANQDTSSSASPEVAPSFSTDGWDSPTKSVALPPGMQQIDEEETTVADKDSTPQPQARAETAWGSGDATPMPLPAPTNQYKVSGFGEAKVAKGFGQFAPTSSAYGGGGGRGGYGGGDRGGRGGYGGDRGGRGGYGGGDRGGRGGYGGDRGRGGYGGRGGRGGF”, the “soluble on expression in E. coli” value is reported as “not soluble”.
With “MCFFLLCFLDSFRNRDTTQSDTDVIYPRDDPRASRSHQNFGFMDPPPRYEQIFKRGGGTPSVITTREAPSVTRSTGDGSLPPSYEQAALNARRESRPQLPQGTLREVPLTAIDMEHPAMSTPSSTVLDMESEITNITNHAQACVHRYDASHANEVTRTAVAVTTESPAPAQSTSNALPELEAPEGGPPGYDTISLHNETVSTR” the “soluble on expression in E. coli” value was “not soluble”.
